Results on two substances are retold here after patent publication US20060057146A1.

Test [1] has as its target recombinant ED-B domain of fibronectin (UniProt P02751). In words: 125I-labelled antibody on ED-B Sepharose column, bound against unbound radioactivity, before injection.
The target is the same in test [2]. Nature of the test: 125I-labelled antibody in mouse plasma 3 h after i.v. injection, ED-B Sepharose column.
Test [3] has the same target. Nature of the test: 125I-labelled antibody in mouse plasma 6 h after i.v. injection, ED-B Sepharose column.
Test [4] has the same target. In words: 125I-labelled antibody in mouse plasma 24 h after i.v. injection, ED-B Sepharose column.
Test [5] shares this target. Nature of the test: 125I-labelled antibody in mouse plasma 48 h after i.v. injection, ED-B Sepharose column.
The target is the same in test [6]. Nature of the test: 125I-labelled antibody in mouse plasma 72 h after i.v. injection, ED-B Sepharose column.
Test [7] shares this target. Nature of the test: 125I-labelled antibody in mouse plasma 144 h after i.v. injection, ED-B Sepharose column.

Chain of scFv(L19) (VH): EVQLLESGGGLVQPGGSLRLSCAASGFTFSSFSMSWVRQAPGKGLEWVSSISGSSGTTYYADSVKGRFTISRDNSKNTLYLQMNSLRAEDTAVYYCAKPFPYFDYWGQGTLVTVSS
Chain of scFv(L19) (VL): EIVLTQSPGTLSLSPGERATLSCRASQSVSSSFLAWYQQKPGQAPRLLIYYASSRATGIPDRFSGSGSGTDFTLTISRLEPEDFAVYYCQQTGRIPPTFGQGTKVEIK
Chain of UniProt P02751 (P02751 1266-1356 limits assumed): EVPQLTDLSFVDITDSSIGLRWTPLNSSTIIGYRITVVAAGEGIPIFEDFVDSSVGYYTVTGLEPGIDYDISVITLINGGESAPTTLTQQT

Turning to “L19 small immunoprotein (L19-SIP) (from UniProt P01854 319-426)”, the immunoreactivity (percentage bound to ED-B Sepharose) in test [1] was above 90%.
Consider scFv(L19), for which the Immunoreactivity (I), % of the value before i.v. injection in test [2] worked out at 36%; in test [3], 32%; in test [4], 27%; in test [5], 14%; in test [6], 9%; in test [7], 4%. The immunoreactivity (percentage bound to ED-B Sepharose) in test [1] was above 90%.
